Experimental data from patent publication US9540613B2, “Methods for producing insulin-secreting beta cells from human pluripotent stem cells” (Wisconsin Alumni Research Foundation, priority 2013, dated 2017).

Key:
[1] = tested on: human pluripotent stem cells; assay: Replacement of FGF2 by other FGFs in Stage 1 differentiation; assay type: cell-based; settings: FGF used in Stage 1 medium
Text: In some embodiments, the FGF used in Stage 1 is selected from the group consisting of FGF2, FGF4, FGF7, FGF10 and the mixtures thereof. […] Thus, one would use any one of FGF4, FGF7 and FGF10 to replace FGF2 in Stage 1. One may also use mixtures of two or more of FGF2, FGF4, FGF7 and FGF10 in this stage. In a specific embodiment, the FGF in Stage 1 is FGF2.

[2] = tested on: PDX1 and insulin protein expression in H1 cells; assay: Flow cytometry of PDX1 and insulin protein expression at end of Stage 4; assay type: cell-based, human
Text: To quantify insulin and PDX1 protein expression we optimized a flow cytometry assay. […] The INS-1 cell line is an immortalized pancreatic beta cell line that expresses both PDX1 and insulin. On the bottom left, is our negative control, unstained H1 cells differentiated for 18 days. On the right, is H1 cells differentiated by the current protocol through day 18 stained with Insulin-PB and PDX1-AF488. […] Only 8-11% of the cells are PDX1 and insulin double positive.
To examine protein expression we collected cells at the end of Stage 4 and examined them by flow cytometry.
Thus, the effect of Noggin is context dependent and synergistic with nicotinamide and Exendin-4.

[3] = tested on: insulin protein expression; assay: Immunohistochemistry of insulin protein expression after Stage 4; assay type: cell-based, human; settings: addition of Noggin at Stage 4
Procedure: Immunohistochemistry was performed at the end of Stage 4 (Day 18) to examine protein expression of Insulin and NKX6.1.

[4] = tested on: PDX1, NKX6.1, Neurogenin 3 and insulin gene expression; assay: QPCR gene expression of endoderm and pancreatic markers in differentiated cells; assay type: cell-based, human
Procedure: QPCR was performed at the end of Stage 4 ([…] Day 18) to examine gene expression of PDX1, a marker of pancreatic epithelium and progenitor cells, insulin, a marker of beta cells, and Sox9 which is expressed in the developing pancreatic epithelium. The gene expression is compared to undifferentiated cells collected at Day 0 and β-Actin is the internal control. […] Human Fetal Pancreas (HFP), gestation 14-20 weeks, is represented as a positive control.
In FIG. 19, the gene expression is compared to undifferentiated cells collected at Day 0 and B-Actin is the internal control. On the y axis is delta CT (instead of fold change), thus, the lower the value the greater the gene expression.
First, alterations at Stage 3 and 4 altered gene expression minimally. […] On the y axis is delta CT (instead of fold change), thus, the lower the value the greater the gene expression. […] In contrast the addition of Noggin at Stage 4, decreased PDX1 and NKX6.1 gene expression and increased Neurogenin 3 expression. There was no difference in insulin gene expression following the addition of Noggin to Stage 4.

B1: FGF4: fibroblast growth factor family ligand (protein, UniProt P08620 31-206, looked up)
Fibroblast growth factor 4: APTAPNGTLEAELERRWESLVALSLARLPVAAQPKEAAVQSGAGDYLLGIKRLRRLYCNVGIGFHLQALPDGRIGGAHADTRDSLLELSPVERGVVSIFGVASRFFVAMSSKGKLYGSPFFTDECTFKEILLPNNYNAYESYKYPGMFIALSKNGKTKKGNRVSPTMKVTHFLPRL
Question: B1 was tested. Which “effects in Stage 1 relative to FGF2” value [1] did it give?
Answer: comparable to FGF2

B2: FGF7: fibroblast growth factor 7 (protein, UniProt P21781 32-194, looked up)
Fibroblast growth factor 7: CNDMTPEQMATNVNCSSPERHTRSYDYMEGGDIRVRRLFCRTQWYLRIDKRGKVKGTQEMKNNYNIMEIRTVAVGIVAIKGVESEFYLAMNKEGKLYAKKECNEDCNFKELILENHYNTYASAKWTHNGGEMFVALNQKGIPVRGKKTKKEQKTAHFLPMAIT
Question: How did the “effects in Stage 1 relative to FGF2” value [1] turn out when B2 was run?
Answer: comparable to FGF2

B3: FGF10: fibroblast growth factor family ligand (protein, UniProt O15520 38-208, looked up)
Fibroblast growth factor 10: QALGQDMVSPEATNSSSSSFSSPSSAGRHVRSYNHLQGDVRWRKLFSFTKYFLKIEKNGKVSGTKKENCPYSILEITSVEIGVVAVKAINSNYYLAMNKKGKLYGSKEFNNDCKLKERIEENGYNTYASFNWQHNGRQMYVALNGKGAPRRGQKTRRKNTSAHFLPMVVHS
Question: How did the “effects in Stage 1 relative to FGF2” value [1] turn out when B3 was run?
Answer: comparable to FGF2

B4: Noggin: a protein which in humans is encoded by the NOG gene; inhibits TGF-β signal transduction (protein, UniProt Q13253 28-232, looked up)
Noggin: QHYLHIRPAPSDNLPLVDLIEHPDPIFDPKEKDLNETLLRSLLGGHYDPGFMATSPPEDRPGGGGGAAGGAEDLAELDQLLRQRPSGAMPSEIKGLEFSEGLAQGKKQRLSKKLRRKLQMWLWSQTFCPVLYAWNDLGSRFWPRYVKVGSCFSKRSCSVPEGMVCKPSKSVHLTVLRWRCQRRGGQRCGWIPIQYPIISECKCSC
Question: B4 was tested. Which double positive cells ([2]; Noggin in the context of ITSFINE) did it give?
Answer: increases double positive cells

Question: And the insulin expression ([2]; addition of Noggin at Stage 4 (ITSFINE))?
Answer: increases insulin expression

Question: And the double positive cells ([2]; addition of Noggin in the absence of nicotinamide and Exendin-4 (ITSFI))?
Answer: does not further increase the double positive cells

Question: And the “clustering and insulin protein expression” value [3]?
Answer: increased clustering and insulin protein expression

Question: What about the “hormonal status of insulin-expressing cells” value [3] of the same molecule?
Answer: a majority of those cells are still polyhormonal

Question: What about the NKX6.1 gene expression ([4]; addition of Noggin at Stage 4) of the same molecule?
Answer: decreased

Question: What about the “Neurogenin 3 expression” value ([4]; addition of Noggin at Stage 4) of the same molecule?
Answer: increased

Question: And the PDX1 gene expression ([4]; addition of Noggin at Stage 4)?
Answer: decreased

Question: What about the insulin gene expression ([4]; addition of Noggin to Stage 4) of the same molecule?
Answer: no difference
